Laboratory results: publication PMC9569990 (International Journal of Molecular Sciences, 2022)

Legend:
Test in all cases: SPR; cytokine immobilised on ProteOn GLH sensor chip by amine coupling (9,000-14,000 RU); S100P (wild type or mutant) as analyte, 62 nM-16 µM; 25 °C; 10 mM HEPES, 150 mM NaCl, 1 mM CaCl2, 0.05% TWEEN 20, pH 7.4; heterogeneous ligand model (two ligand populations), one-site model for IL-13; values averaged over analyte concentrations (n = 3-5)
Conditions in all cases: both partners purified
Interleukin-21 = target: T1, Interleukin-21 (human, UniProt Q9HBE4 25-162)
T1 construct: Interleukin-21, human, UniProt Q9HBE4; see the manufacturer's catalogue number; also called IL-21; source: bought: PeproTech (source E. coli)

Interleukin-35 = target: T2, Interleukin-35 (human, UniProt P29459 23-219; Q14213 21-229)
T2 construct: the chain used for the SCOP family assignment; also called IL-35; source: bought: PeproTech (source HEK293)
T2 sequence (looked up) 1: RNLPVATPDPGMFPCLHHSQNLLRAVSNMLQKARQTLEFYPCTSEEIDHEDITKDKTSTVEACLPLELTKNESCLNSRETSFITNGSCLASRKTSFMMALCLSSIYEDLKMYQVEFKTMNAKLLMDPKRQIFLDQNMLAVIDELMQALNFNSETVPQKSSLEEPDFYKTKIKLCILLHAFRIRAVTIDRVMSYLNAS
T2 sequence (looked up) 2: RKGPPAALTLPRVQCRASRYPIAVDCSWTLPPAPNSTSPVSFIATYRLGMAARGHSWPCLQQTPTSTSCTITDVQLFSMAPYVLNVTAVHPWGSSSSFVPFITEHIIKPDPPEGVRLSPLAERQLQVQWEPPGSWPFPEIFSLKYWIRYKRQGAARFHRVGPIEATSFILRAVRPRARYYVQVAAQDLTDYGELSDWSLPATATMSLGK

Growth hormone variant = target: T3, Growth hormone variant (human, UniProt P01242 27-217)
T3 construct: Growth hormone variant, human, UniProt P01242; see the manufacturer's catalogue number; also called GH-V; source: bought: R&D Systems (source E. coli)

Prolactin = target: T4, Prolactin (human, UniProt P01236 29-227)
T4 construct: Prolactin, human, UniProt P01236; see the manufacturer's catalogue number; also called PRL; source: bought: PeproTech (source E. coli)
T4 sequence (looked up): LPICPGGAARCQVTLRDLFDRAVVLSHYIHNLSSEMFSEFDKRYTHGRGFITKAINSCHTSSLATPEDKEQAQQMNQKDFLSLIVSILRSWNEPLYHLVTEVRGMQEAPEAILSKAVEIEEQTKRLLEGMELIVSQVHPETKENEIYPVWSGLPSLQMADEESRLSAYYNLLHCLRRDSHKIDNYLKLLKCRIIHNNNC

Leptin = target: T5, Leptin (human, UniProt P41159 22-167)
T5 construct: Leptin, human, UniProt P41159; see the manufacturer's catalogue number; source: bought: PeproTech (source E. coli)

Interleukin-10 = target: T6, Interleukin-10 (human, UniProt P22301 19-178)
T6 construct: Interleukin-10, human, UniProt P22301; see the manufacturer's catalogue number; also called IL-10; source: bought: PeproTech (source E. coli)

Interleukin-13 = target: T7, Interleukin-13 (human, UniProt P35225 25-146)
T7 construct: Interleukin-13, human, UniProt P35225; see the manufacturer's catalogue number; also called IL-13; source: bought: PeproTech (source E. coli)

Interleukin-15 = target: T8, Interleukin-15 (human, UniProt P40933 49-162)
T8 construct: Interleukin-15, human, UniProt P40933; see the manufacturer's catalogue number; also called IL-15; source: bought: PeproTech (source E. coli)
T8 sequence (P40933 49-162): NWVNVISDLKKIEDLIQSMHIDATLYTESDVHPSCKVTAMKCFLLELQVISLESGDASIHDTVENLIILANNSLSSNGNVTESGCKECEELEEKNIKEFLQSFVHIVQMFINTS

T5 sequence (P41159 22-167): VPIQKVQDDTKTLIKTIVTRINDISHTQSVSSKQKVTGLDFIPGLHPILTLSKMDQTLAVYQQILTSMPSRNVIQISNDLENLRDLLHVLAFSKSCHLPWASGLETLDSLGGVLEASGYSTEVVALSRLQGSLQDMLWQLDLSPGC
T1 sequence (Q9HBE4 25-162): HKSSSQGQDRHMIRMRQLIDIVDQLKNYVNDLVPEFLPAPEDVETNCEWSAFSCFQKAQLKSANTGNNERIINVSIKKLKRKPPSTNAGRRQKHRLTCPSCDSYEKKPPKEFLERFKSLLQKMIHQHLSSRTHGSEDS
T6 sequence (P22301 19-178): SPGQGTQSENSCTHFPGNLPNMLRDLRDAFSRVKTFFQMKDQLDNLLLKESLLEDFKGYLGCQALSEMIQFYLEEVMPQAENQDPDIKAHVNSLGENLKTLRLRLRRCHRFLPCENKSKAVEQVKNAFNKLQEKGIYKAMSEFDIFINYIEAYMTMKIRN
T7 sequence (P35225 25-146): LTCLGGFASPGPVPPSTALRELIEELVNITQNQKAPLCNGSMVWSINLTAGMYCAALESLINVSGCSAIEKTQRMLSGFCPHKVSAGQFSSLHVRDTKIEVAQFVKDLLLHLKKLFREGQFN
T3 sequence (P01242 27-217, change not shown): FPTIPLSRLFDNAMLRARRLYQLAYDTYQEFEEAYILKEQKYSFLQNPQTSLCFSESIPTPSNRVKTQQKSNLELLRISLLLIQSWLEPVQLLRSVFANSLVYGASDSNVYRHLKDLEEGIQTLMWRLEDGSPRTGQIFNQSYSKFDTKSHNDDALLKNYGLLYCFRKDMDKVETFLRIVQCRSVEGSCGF

Binder | Kd1 (heterogeneous ligand model, population 1) (Interleukin-21) | Kd2 (heterogeneous ligand model, population 2; column head printed as Kd1) (Interleukin-21) | Kd (Interleukin-35) | Kd (Growth hormone variant) | Kd1 (heterogeneous ligand model, population 1) (Prolactin) | Kd2 (heterogeneous ligand model, population 2; column head printed as Kd1) (Prolactin) | Kd1 (heterogeneous ligand model, population 1) (Leptin) | Kd2 (heterogeneous ligand model, population 2; column head printed as Kd1) (Leptin) | Kd1 (heterogeneous ligand model, population 1) (Interleukin-10) | Kd2 (heterogeneous ligand model, population 2; column head printed as Kd1) (Interleukin-10) | Kd (Interleukin-13) | Kd1 (heterogeneous ligand model, population 1) (Interleukin-15) | Kd2 (heterogeneous ligand model, population 2; column head printed as Kd1) (Interleukin-15) | Kd (Interleukin-21) | Kd (Prolactin) | Kd (Leptin) | Kd (Interleukin-10) | Kd (Interleukin-15)
Human S100P mutant F89A (natural protein, S100P protein, human, recombinant, with F89A; source: E. coli, prepared as previously described [28]) MTELETAMGMIIDVFSRYSGSEGSTQTLTKGELKVLMEKELPGFLQSGKDKDAVDKLLKDLDANGDAQVDFSEFIVFVAAITSACHKYAEKAGLK | 401 nM | 950 nM | > 100 µM | > 100 µM | 689 nM | 3.12 µM | 4.37 µM | 35.7 µM | 4.74 µM | 6.05 µM | > 100 µM | 157 nM | 283 nM | – | – | – | – | –
Human S100P mutant Δ42–47 (lacks PGFLQS sequence in the 'hinge') (natural protein, S100P protein, human, recombinant, with residues 42-47 (PGFLQS) deleted; source: E. coli, prepared as previously described [28]) MTELETAMGMIIDVFSRYSGSEGSTQTLTKGELKVLMEKELGKDKDAVDKLLKDLDANGDAQVDFSEFIVFVAAITSACHKYFEKAGLK | – | – | > 10 µM | > 100 µM | – | – | – | – | – | – | > 100 µM | – | – | > 100 µM | > 100 µM | > 100 µM | > 100 µM | > 100 µM
